Assay results reported in the supplement of paper PMC10567573.

B1: WEE1 (parent)
chain: FISRTSIPNAASEEGDEDDWASNK

Variants of: B1
Assay: protein stability index of a GFP-peptide fusion (GPS, HEK-293T) (PSI 1-6); higher = more stable
Settings: c terminus: a fixed tail appended
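Further: lentivirally expressed fusions sorted by FACS into six bins by GFP to DsRed ratio, PSI derived from sequencing read proportions per bin multiplied by bin number.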

Protein stability index of substitutions, site by site:
E17: V 3.35, C 3.43, Y 3.59, S 3.72, Q 3.79, K 3.73, R 3.67, I 3.8, F 3.01, H 4.05, N 2.13, D 4.06, T 3.64, L 3.11, G 3.75, P 3.37, W 3.04, A 3.73, M 3.67
A10: D 3.15, N 3.86, F 3.24, V 3.57, R 3.97, H 4.06, M 3.54, G 4.13, P 4.21, L 3.93, Q 4.16, S 4.34, T 3.89, E 4.35, C 3.67, Y 3.17, K 3.65, I 3.56, W 2.15
P8: A 3.93, S 4.05, M 3.51, H 3.41, E 3.82, T 4.1, D 4.68, N 4.31, G 2.17, W 2.01, V 3.48, K 4.12, L 2.92, C 3.18, Y 2.16, F 3.19, Q 3.96, R 3.69, I 3.82
N9: C 3.44, Y 2.35, T 4.21, S 3.84, D 4.34, P 3.91, V 3.93, G 4.38, A 3.66, K 4.13, R 3.35, M 3.25, F 2.87, I 3.77, Q 4.28, H 3.93, E 4.64, W 2.46, L 3.79
S6: T 3.73, W 3.48, V 3.69, R 3.22, Y 1.98, Q 3.89, P 3.79
W20: L 4.23, A 4.79, I 4.21, N 4.51, T 4.46, P 4.57, M 4.44, Y 4.23, E 4.75, V 4.81, F 4.81, D 4.92, C 4.75, K 3.42, Q 4.7, H 4.44, G 4.52, R 4.46, S 4.93
N23: D 3.92, I 3.79, K 3.93, C 3.73, A 3.94, G 4.33, V 2.71, R 4.21, Q 3.82, M 3.57, L 3.45, P 3.67, H 3.76, T 4.22, S 4.16, E 4.22, Y 3.64, W 3.65, F 3.94
K24: C 4.15, D 4.73, E 4.69, A 4.19
D18: A 3.62, G 3.55, C 3.28, E 4.22, Q 3.56, I 3.53, R 3.81, Y 2.5, N 3.27, W 2.54, H 2.23, M 3.03, K 3.76, F 2.5, V 3.35, S 3.46, L 3.16, P 3.6, T 3.5
E13: H 3.67, K 3.5, T 3.55, P 4.43, M 3.64, N 3.51, F 3.65, R 4.15, L 3.5, W 3.54, V 3.29, G 3.78, A 3.85, Y 3.46, S 3.9, Q 3.81, I 3.03, C 3.62, D 3.68
D19: P 3.37, R 3.5, C 3.34, A 3.77, E 3.96, H 3.61, S 3.78, K 3.77, M 3.06, G 3.82, W 2.37, L 2.48, N 3.72, T 3.58, V 3.02, I 2.67, Q 3.87, F 2.31, Y 3.27
A11: G 4.23, I 3.48, M 3.95, C 3.47, Q 4.21, S 4.23, T 4.19, R 3.78, F 3.47, K 3.69, E 4.37, D 4.12, V 3.92, Y 3.63, P 3.95, N 3.79, H 4.4, W 2.45, L 4.13
S12: W 3.47, V 3.91, Y 3.76, T 3.56, G 4.13, M 3.68, H 3.93, R 4.37, K 3.75, D 4.26, I 3.85, E 4.34, A 3.64, L 4.03, N 4.07, F 3.68, P 4.18, Q 4.3, C 3.97
E14: K 4.03, H 3.75, A 4.43, Q 3.91, T 3.99, L 3.56, M 3.79, C 4.11, D 3.88, R 3.39, N 3.78, V 3.35, I 3.64, G 3.33, W 3.02, P 3.98, Y 4.02, S 3.66, F 3.53
A21: M 3.77, K 4.21, I 3.83, S 4.1, C 4.1, D 4.77, W 3.53, E 4.5, F 3.72, L 3.29, N 3.76, Y 3.9, Q 3.62, P 3.7, T 4.59, R 4.39, G 4.63, V 3.81, H 4.09
I7: G 4.84, K 4.28, C 3.83, R 3.58, M 4.41, Q 4.37, P 4.79, L 4.11, F 2.79, Y 2.72, E 4.54, T 4.53, V 3.78, D 4.84, S 4.36, N 4.35, H 3.79, A 4.21, W 2.82
S22: Y 4.08, E 4.18, D 4.51, C 3.87, R 3.99, A 4.15, V 3.96, K 4.38, W 2.71, T 4.23, M 3.88, Q 3.9, I 4.24, F 3.96, G 2.83, H 3.92, L 3.52, N 4.11, P 3.14
D16: V 3.86, I 4, R 4.17, E 3.94, G 3.76, N 3.8, P 3.55, T 3.49, S 3.65, Y 3.46, F 3.63, K 3.81, L 3.83, C 3.74, Q 4.02, M 3.61, W 3.23, A 3.72, H 3.23
G15: T 4.17, E 4.62, C 4.51, S 4.42, D 4.12, N 3.78, P 3.79, V 4.46, W 3.27, A 4.17, Y 4.13, H 3.91, I 4.29, F 3.83, L 3.74, K 4.18, M 3.72, R 3.26, Q 3.78
